# Source: patent US20230181770A1, “COMPOSITIONS AND METHODS OF TARGETING AND IMAGING AGED MICROGLIA WITH Aß PEPTIDE AMINO ACID RESIDUES FOR V-DOMAIN BINDING OF RAGE” (Neurosn, Inc., priority 2018, published 2023)
# Molecular target: T1, RAGE receptors (Mus musculus, UniProt Q62151)
# T1 construct: from tissue; host or cells: mouse brain (APPSWE Model 2789 and C57BL/6 mice), after tail vein injection
# Test: Brain autoradiography (AR) binding localization after tail vein injection in AD and normal mice
# Assay type: in vivo
# Conditions: 50 μCi per tail vein at day 0, sacrificed day 3
# From the text: Four APPSWE Model 2789 mice (AD) and 4 C57BL/6 mice (normal) receive an injection of 50 μCi of Sn-IBD-Aβ(16-23) per tail vein at day 0.
# Additionally, four APPSWE Model 2789 mice (AD) and 4 C57BL/6 mice (normal) receive an injection of 50 μCi of Sn-IBD-K-Aβ(23-17) per tail vein at day 0.
# All the animals are sacrificed on day 3 post Sn-Aβ-AA injection and brains preserved and autoradiography (AR) binding localization in AD-specific areas mapped.
# Findings—Histopathological comparison and autoradiography dosimetry are measured in each mouse brain in comparative anatomic regions.
# T1 sequence (Q62151 23-402): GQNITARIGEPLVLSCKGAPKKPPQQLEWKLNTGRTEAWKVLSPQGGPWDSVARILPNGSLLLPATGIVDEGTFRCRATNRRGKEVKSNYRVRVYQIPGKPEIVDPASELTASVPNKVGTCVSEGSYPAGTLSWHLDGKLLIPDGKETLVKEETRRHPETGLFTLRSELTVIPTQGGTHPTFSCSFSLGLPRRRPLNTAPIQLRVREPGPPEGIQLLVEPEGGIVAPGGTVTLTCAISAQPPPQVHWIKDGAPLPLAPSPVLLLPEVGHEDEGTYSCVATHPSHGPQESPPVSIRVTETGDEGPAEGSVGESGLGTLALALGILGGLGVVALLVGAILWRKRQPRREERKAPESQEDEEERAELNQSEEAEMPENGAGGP
substance,measurement,setting,value
"Sn-IBD-Aβ(16-23) (KLVFFAED; Amyloid-beta protein 42 Sn-IBD conjugate; UniProt P05067 687-694, looked up, fragment)",AR distribution of RAGE binding in brain,RAGE expressing APPSWE Model 2789 mice (AD),increase in RAGE binding
same,AR distribution of RAGE binding in cortical and hippocampal areas,normal C57BL/6 mice,minimal
